These results are taken from patent US20240417704.

The target of series [1] is Hel308 Mbu-E284Faz heat treated E284Faz (Methanococcoides burtonii) (UniProt Q12WZ6). Particulars: four nitroindoles between SEQ 155 3' end and SEQ 154 5' end; percent of movements reaching polyT; 500 nM enzyme; nanopore; 960 mM KCl, 10 mM MgCl2, 1 mM ATP.
In series [2] the target is Hel308 Mbu-E284Faz E284Faz (Methanococcoides burtonii) (UniProt Q12WZ6). Particulars: four nitroindoles between SEQ 155 3' end and SEQ 154 5' end; percent of movements reaching polyT; nanopore; 960 mM KCl, 10 mM MgCl2, 1 mM ATP, +120 mV.
Chain of Hel308 Mbu-E284Faz E284Faz (Methanococcoides burtonii) (Q12WZ6 whole entry): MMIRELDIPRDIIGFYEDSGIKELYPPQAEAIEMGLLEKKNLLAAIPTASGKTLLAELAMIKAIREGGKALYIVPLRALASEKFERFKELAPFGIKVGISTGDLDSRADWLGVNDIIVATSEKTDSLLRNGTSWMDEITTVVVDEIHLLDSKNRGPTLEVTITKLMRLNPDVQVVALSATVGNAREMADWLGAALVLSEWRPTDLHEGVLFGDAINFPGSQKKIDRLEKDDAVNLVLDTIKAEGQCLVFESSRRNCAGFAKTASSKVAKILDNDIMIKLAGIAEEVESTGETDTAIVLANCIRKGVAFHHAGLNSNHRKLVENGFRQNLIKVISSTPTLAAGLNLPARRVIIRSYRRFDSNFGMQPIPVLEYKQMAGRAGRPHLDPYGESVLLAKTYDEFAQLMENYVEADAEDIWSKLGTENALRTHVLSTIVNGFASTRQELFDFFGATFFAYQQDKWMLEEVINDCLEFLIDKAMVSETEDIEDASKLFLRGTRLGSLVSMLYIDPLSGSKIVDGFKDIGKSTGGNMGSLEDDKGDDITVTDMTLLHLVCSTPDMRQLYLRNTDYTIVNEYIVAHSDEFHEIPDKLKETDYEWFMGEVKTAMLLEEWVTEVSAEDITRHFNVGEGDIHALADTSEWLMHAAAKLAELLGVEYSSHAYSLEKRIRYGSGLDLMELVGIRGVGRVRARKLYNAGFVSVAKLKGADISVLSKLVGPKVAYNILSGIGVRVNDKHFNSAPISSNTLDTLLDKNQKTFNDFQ

Chain of Hel308 Mbu-E284Faz heat treated E284Faz (Methanococcoides burtonii) (Q12WZ6 whole entry): as above

3.6 kb DNA: the activity in series [1] was determined as 71%; in series [2], 28%.
